{
  "source": "patent US20200031888",
  "proteins": {"B1": {"name": "recombinant precursor Complement Factor I (pro-rCFI), His-tagged, expressed in CHO cells (protein)", "chain": "KVTYTSQEDLVEKKCLAKKYTHLSCDKVFCQPWQRCIEGTCVCKLPYQCPKNGTAVCATNRRSFPTYCQQKSLECLHPGTKFLNNGTCTAEGKFSVSLKHGNTDSEGIVEVKLVDQDKTMFICKSSWSMREANVACLDLGFQQGADTQRRFKLSDLSINSTECLHVHCRGLETSLAECTFTKRRTMGYQDFADVVCYTQKADSPMDDFFQCVNGKYISQMKACDGINDCGDQSDELCCKACQGKGFHCKSGVCIPSQYQCNGEVDCITGEDEVGCAGFASVTQEETEILTADMDAERRRIKSLLPKLSCGVKNRMHIRRKRIVGGKRAQLGDLPWQVAIKDASGITCGGIYIGGCWILTAAHCLRASKTHRYQIWTTVVDWIHPDLKRIVIEYVDRIIFHENYNAGTYQNDIALIEMKKDGNKKDCELPRSIPACVPWSPYLFQPNDTCIVSGWGREKDNERVFSLQWGEVKLISNCSKFYGNRFYEKEMECAGTYDGSIDACKGDSGGPLVCMDANNVTYVWGVVSWGENCGKPEFPGVYTKVANYFDWISYHVGRPFISQYNV"}, "B2": {"name": "serum CFI (Comptech) (protein)", "chain": "B1 chain"}, "B3": {"name": "recombinant mature Complement Factor I made by in vitro furin cleavage of pro-rCFI (protein)", "chain 1": "KVTYTSQEDLVEKKCLAKKYTHLSCDKVFCQPWQRCIEGTCVCKLPYQCPKNGTAVCATNRRSFPTYCQQKSLECLHPGTKFLNNGTCTAEGKFSVSLKHGNTDSEGIVEVKLVDQDKTMFICKSSWSMREANVACLDLGFQQGADTQRRFKLSDLSINSTECLHVHCRGLETSLAECTFTKRRTMGYQDFADVVCYTQKADSPMDDFFQCVNGKYISQMKACDGINDCGDQSDELCCKACQGKGFHCKSGVCIPSQYQCNGEVDCITGEDEVGCAGFASVAQEETEILTADMDAERRRIKSLLPKLSCGVKNRMHI", "chain 2": "IVGGKRAQLGDLPWQVAIKDASGITCGGIYIGGCWILTAAHCLRASKTHRYQIWTTVVDWIHPDLKRIVIEYVDRIIFHENYNAGTYQNDIALIEMKKDGNKKDCELPRSIPACVPWSPYLFQPNDTCIVSGWGREKDNERVFSLQWGEVKLISNCSKFYGNRFYEKEMECAGTYDGSIDACKGDSGGPLVCMDANNVTYVWGVVSWGENCGKPEFPGVYTKVANYFDWISYHVGRPFISQYNV"}},
  "biological_target": "C3b (Comptech), P01024",
  "sequence (P01024 whole entry, looked up)": "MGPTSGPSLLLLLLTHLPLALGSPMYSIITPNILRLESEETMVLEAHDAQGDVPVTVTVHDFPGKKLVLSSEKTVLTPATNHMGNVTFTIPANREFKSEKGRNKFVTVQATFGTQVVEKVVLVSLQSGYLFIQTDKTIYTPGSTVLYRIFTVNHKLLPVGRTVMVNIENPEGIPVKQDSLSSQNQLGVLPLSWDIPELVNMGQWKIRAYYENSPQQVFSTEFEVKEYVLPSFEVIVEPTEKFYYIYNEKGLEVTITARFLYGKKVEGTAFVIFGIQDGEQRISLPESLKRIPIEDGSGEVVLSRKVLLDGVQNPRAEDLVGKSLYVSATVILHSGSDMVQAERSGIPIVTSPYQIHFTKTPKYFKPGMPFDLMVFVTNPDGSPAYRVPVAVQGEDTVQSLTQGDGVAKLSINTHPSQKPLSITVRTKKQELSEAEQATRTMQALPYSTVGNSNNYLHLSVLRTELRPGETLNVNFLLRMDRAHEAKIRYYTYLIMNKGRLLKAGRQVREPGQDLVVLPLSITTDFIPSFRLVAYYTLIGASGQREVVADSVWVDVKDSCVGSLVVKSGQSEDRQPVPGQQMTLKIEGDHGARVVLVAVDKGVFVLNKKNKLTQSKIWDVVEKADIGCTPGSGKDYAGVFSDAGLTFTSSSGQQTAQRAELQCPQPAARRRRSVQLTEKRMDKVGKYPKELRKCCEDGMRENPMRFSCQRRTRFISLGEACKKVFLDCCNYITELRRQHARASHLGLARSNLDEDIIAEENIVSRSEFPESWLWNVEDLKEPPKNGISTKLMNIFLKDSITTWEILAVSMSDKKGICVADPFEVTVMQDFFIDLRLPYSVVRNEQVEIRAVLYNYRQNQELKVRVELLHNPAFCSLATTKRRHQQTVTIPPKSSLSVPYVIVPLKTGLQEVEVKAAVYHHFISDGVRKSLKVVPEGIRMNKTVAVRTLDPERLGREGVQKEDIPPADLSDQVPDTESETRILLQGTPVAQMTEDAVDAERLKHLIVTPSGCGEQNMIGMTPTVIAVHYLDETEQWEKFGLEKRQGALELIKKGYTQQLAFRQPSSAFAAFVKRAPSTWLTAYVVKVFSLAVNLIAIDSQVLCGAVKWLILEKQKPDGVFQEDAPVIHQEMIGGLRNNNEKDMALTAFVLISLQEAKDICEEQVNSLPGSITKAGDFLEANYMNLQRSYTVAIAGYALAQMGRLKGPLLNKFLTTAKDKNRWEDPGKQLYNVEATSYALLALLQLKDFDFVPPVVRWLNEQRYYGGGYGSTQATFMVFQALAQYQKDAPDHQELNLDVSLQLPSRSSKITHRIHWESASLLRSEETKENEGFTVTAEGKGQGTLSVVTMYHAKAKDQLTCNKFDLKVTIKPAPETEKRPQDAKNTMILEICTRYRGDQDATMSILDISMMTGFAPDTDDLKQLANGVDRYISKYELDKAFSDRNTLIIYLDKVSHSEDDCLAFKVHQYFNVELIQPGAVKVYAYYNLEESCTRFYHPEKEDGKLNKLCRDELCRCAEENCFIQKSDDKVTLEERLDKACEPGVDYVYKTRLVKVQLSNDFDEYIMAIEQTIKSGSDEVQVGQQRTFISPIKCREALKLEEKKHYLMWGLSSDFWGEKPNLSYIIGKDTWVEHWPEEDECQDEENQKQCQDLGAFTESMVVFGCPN",
  "data": [
    {"protein": "B1", "values": [
      {"measurement": "C3b cofactor assay, western blot", "value": "only cleaved FI has activity, and Pro-FI is inactive"}
    ]},
    {"protein": "B2", "values": [
      {"measurement": "C3b inactivation assay, positive control", "value": "iC3b cleaved by incubation with mature sCFI"}
    ]},
    {"protein": "B3", "values": [
      {"measurement": "C3b inactivation (cofactor) assay with CFH, western blot of alpha1 and alpha2 bands", "value": "lane 8 which corresponds to a sample containing the in vitro cleaved mature rCFI, is the only sample containing bands that correspond to the α1 and α2 chains"},
      {"measurement": "C3b inactivation assay, second western blot", "value": "The activity of the in vitro cleaved rCFI can be seen to be comparable to sCFI"}
    ]}
  ]
}
